Test [1] has as its target T1, rat calcitonin receptor (rat, UniProt P32214 25-516).
T1 construct: whole, on cells; Membranes of transiently transfected BHK tk'ts 13 cells; also called rCTR; rat calcitonin (a) receptor
T1 sequence (looked up): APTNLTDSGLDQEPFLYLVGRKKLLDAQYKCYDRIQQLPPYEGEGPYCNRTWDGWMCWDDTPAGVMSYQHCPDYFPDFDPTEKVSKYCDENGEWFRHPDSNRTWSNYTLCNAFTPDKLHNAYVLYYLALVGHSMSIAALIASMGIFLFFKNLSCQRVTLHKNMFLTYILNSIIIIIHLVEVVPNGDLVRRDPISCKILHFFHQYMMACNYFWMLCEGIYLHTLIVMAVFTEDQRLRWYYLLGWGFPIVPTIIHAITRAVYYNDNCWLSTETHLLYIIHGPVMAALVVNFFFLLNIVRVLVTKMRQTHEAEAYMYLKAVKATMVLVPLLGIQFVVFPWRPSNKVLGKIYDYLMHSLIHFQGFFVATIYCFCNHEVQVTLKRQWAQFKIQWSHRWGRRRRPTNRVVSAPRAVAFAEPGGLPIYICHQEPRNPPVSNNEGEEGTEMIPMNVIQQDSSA
The test can be described thus: SPA competition with 125I-calcitonin on membranes of BHK tk'ts 13 cells with rat calcitonin receptor (Assay VIII).

Test [2] addresses T2, human calcitonin receptor (human, UniProt P30988 25-474).
T2 construct: whole, on cells; Membranes of stably transfected cells; also called hCTR; hCT
T2 sequence (looked up): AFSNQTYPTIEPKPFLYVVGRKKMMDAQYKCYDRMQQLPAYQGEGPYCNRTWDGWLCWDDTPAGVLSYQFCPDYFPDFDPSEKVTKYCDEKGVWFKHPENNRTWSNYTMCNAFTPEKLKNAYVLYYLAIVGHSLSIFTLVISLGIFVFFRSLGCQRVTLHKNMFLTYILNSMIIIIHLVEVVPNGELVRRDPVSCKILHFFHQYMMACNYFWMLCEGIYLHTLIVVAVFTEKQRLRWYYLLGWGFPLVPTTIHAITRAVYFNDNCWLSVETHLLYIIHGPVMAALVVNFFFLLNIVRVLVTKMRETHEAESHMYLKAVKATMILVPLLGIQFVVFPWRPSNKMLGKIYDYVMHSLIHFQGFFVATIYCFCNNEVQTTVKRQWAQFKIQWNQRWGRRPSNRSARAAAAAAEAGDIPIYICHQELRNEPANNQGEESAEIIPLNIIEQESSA
The test can be described thus: ratio of IC50 on human calcitonin receptor to IC50 on human amylin receptor (reference m42), SPA competition. The procedure:
The resulting pellet was resuspended, homogenized and centrifuged (20.000 rpm, 15 min) in a buffer containing 20 mM Na-HEPES and 0.1 mM EDTA (pH 7.4, buffer 2). The resulting pellet was resuspended in buffer 2 and protein concentration was measured (BCA protein Assay, Pierce). The homogenate was kept cold during the whole procedure. The membranes were kept at −80° C. until use. The assay was performed in a 384 well Optiplate (PerkinElmer) in a total volume of 40 ul. Membranes were mixed with SPA beads. Final concentration of membranes 35 ng/μL final and SPA beads was 0.05 mg/well. Test-compounds were dissolved in DMSO and further diluted in assay buffer (50 mM Hepes, pH 7.4, 1 mM CaCl2, 5 mM MgCl₂, 0.1% OA and 0.02% Tween20). […] The final mixture was incubated with shaking at 400 rpm for 120 min at 25° C. prior to centrifugation (1500 rpm, 10 min). Samples were analyzed on TopCounter™ (Packard). The IC₅₀ was calculated using (one site binding competition analysis) GraphPad Prism5 as a measure of receptor affinity.
Membranes were prepared in the following way; the cells were rinsed with PBS and incubated with Versene for approximately 5 min before harvesting. The cells were flushed with PBS and the cell-suspension was centrifuged for 5 min at 1000 rpm. Cells were homogenized (Ultrathurrax) in a buffer containing 20 mM Na-HEPES and 10 mM EDTA (pH 7.4) and centrifuged at 20.000 rpm for 15 min. The resulting pellet was resuspended, homogenized and centrifuged (20.000 rpm, 15 min) in a buffer containing 20 mM Na-HEPES and 0.1 mM EDTA (pH 7.4, buffer 2). The resulting pellet was resuspended in buffer 2 and protein concentration was measured (BCA protein Assay, Pierce). The homogenate was kept cold during the whole procedure. The membranes were kept at −80° C. until use. Assay was performed in a 384 well Optiplate (PerkinElmer) in a total volume of 40 ul. Membranes were mixed with SPA beads.

For test [3], the target named is T3, rat amylin receptor (rat calcitonin receptor + rat RAMP 3) (rat, UniProt P32214 25-516; Q9JJ73 23-147).
T3 construct: whole, on cells; Membranes of transiently transfected BHK tk'ts 13 cells; also called rAmylin-R; rat amylin 3(a) receptor
T3 sequence (looked up) 1: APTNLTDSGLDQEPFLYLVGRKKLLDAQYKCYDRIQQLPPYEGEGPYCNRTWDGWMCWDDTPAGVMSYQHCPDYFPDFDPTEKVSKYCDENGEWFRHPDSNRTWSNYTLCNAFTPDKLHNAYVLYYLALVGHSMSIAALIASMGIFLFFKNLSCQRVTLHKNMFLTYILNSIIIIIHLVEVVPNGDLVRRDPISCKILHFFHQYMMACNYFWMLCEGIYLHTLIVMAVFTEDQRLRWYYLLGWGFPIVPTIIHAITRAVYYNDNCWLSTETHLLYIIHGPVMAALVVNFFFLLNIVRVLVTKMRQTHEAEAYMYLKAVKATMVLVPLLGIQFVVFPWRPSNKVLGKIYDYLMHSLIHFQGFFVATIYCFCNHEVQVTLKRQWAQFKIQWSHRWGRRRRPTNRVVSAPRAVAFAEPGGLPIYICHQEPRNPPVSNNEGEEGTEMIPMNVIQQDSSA
T3 sequence (looked up) 2: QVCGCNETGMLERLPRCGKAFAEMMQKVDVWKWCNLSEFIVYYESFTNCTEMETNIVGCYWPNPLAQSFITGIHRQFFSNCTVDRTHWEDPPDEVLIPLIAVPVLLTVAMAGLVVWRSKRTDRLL
The test can be described thus: SPA competition with 125I-rat amylin on membranes of BHK tk'ts 13 cells with rat calcitonin receptor + rat RAMP3 (Assay VI).

Test [4] has as its target T1, rat calcitonin receptor. The test can be described thus: ratio of IC50 on rat calcitonin receptor to IC50 on rat amylin receptor (reference m40).

Bridge positions count the residues as written; N and C are the ends. Side chains are listed from the residue outwards. Ends that are not written are not given here. * marks the point of attachment. C20 diacid = O=C(O)CCCCCCCCCCCCCCCCCCC(=O)*; AEEA = NCCOCCOCC(=O)O

B1: N^ε1-[2-[2-[2-(19-carboxynonadecanoylamino)ethoxy]ethoxy]acetyl]-[Arg17,Pro21,Pro27,His34]-h-amylin (peptide)
peptide: K([AEEA-C20 diacid])CNTATCATQRLANFLRHSSPNFGAIPSSTNVGHNTY-NH2
modifications: disulfide 2-7; N-terminus assumed
SMILES: CC[C@H](C)[C@H](NC(=O)[C@H](C)NC(=O)CNC(=O)[C@H](Cc1ccccc1)NC(=O)[C@H](CC(N)=O)NC(=O)[C@@H]1CCCN1C(=O)[C@H](CO)NC(=O)[C@H](CO)NC(=O)[C@H](Cc1c[nH]cn1)NC(=O)[C@H](CCCNC(=N)N)NC(=O)[C@H](CC(C)C)NC(=O)[C@H](Cc1ccccc1)NC(=O)[C@H](CC(N)=O)NC(=O)[C@H](C)NC(=O)[C@H](CC(C)C)NC(=O)[C@H](CCCNC(=N)N)NC(=O)[C@H](CCC(N)=O)NC(=O)[C@@H](NC(=O)[C@H](C)NC(=O)[C@@H]1CSSC[C@H](NC(=O)[C@@H](N)CCCCNC(=O)COCCOCCNC(=O)CCCCCCCCCCCCCCCCCCC(=O)O)C(=O)N[C@@H](CC(N)=O)C(=O)N[C@@H]([C@@H](C)O)C(=O)N[C@@H](C)C(=O)N[C@@H]([C@@H](C)O)C(=O)N1)[C@@H](C)O)C(=O)N1CCC[C@H]1C(=O)N[C@@H](CO)C(=O)N[C@@H](CO)C(=O)N[C@H](C(=O)N[C@@H](CC(N)=O)C(=O)N[C@H](C(=O)NCC(=O)N[C@@H](Cc1c[nH]cn1)C(=O)N[C@@H](CC(N)=O)C(=O)N[C@H](C(=O)N[C@@H](Cc1ccc(O)cc1)C(N)=O)[C@@H](C)O)C(C)C)[C@@H](C)O
notes: Synthetic acylated analogue of human amylin; also called compound 91
Usually IC50 stands for the concentration needed to halve the response being measured. With B1, the IC50 with rat calcitonin receptor [1] was found to be 29.4 nM; in test [3], 0.386 nM. The “Ratio hCT/hAmylin binding” value in test [2] was determined as 101. In addition, the “Ratio rCT/rAmylin binding” value in the test with rat calcitonin receptor [4] was determined as 76.3.

B2: N^ε1-[2-[2-[2-(19-carboxynonadecanoylamino)ethoxy]ethoxy]acetyl]-[His14,Arg17,Pro21,Pro27]-h-amylin (peptide)
peptide: K([AEEA-C20 diacid])CNTATCATQRLAHFLRHSSPNFGAIPSSTNVGSNTY-NH2
modifications: disulfide 2-7; N-terminus assumed
SMILES: CC[C@H](C)[C@H](NC(=O)[C@H](C)NC(=O)CNC(=O)[C@H](Cc1ccccc1)NC(=O)[C@H](CC(N)=O)NC(=O)[C@@H]1CCCN1C(=O)[C@H](CO)NC(=O)[C@H](CO)NC(=O)[C@H](Cc1c[nH]cn1)NC(=O)[C@H](CCCNC(=N)N)NC(=O)[C@H](CC(C)C)NC(=O)[C@H](Cc1ccccc1)NC(=O)[C@H](Cc1c[nH]cn1)NC(=O)[C@H](C)NC(=O)[C@H](CC(C)C)NC(=O)[C@H](CCCNC(=N)N)NC(=O)[C@H](CCC(N)=O)NC(=O)[C@@H](NC(=O)[C@H](C)NC(=O)[C@@H]1CSSC[C@H](NC(=O)[C@@H](N)CCCCNC(=O)COCCOCCNC(=O)CCCCCCCCCCCCCCCCCCC(=O)O)C(=O)N[C@@H](CC(N)=O)C(=O)N[C@@H]([C@@H](C)O)C(=O)N[C@@H](C)C(=O)N[C@@H]([C@@H](C)O)C(=O)N1)[C@@H](C)O)C(=O)N1CCC[C@H]1C(=O)N[C@@H](CO)C(=O)N[C@@H](CO)C(=O)N[C@H](C(=O)N[C@@H](CC(N)=O)C(=O)N[C@H](C(=O)NCC(=O)N[C@@H](CO)C(=O)N[C@@H](CC(N)=O)C(=O)N[C@H](C(=O)N[C@@H](Cc1ccc(O)cc1)C(N)=O)[C@@H](C)O)C(C)C)[C@@H](C)O
notes: Synthetic acylated analogue of human amylin; also called compound 90
B2: the concentration for half-maximal inhibition (IC50) with rat calcitonin receptor [1] came out at 18.2 nM; in test [3], 0.246 nM. Besides, the “Ratio hCT/hAmylin binding” value in test [2] is 42.2. In addition, the “Ratio rCT/rAmylin binding” value with rat calcitonin receptor [4] is 74.1.

For the origin of these results see patent publication US20140087995A1 (published 2014).
